From patent US20230042095A1 (AstraZeneca / MedImmune, published 2023)

T1: recombinant human gp130 (human, UniProt P40189 23-619, limits assumed)
T1 sequence (looked up): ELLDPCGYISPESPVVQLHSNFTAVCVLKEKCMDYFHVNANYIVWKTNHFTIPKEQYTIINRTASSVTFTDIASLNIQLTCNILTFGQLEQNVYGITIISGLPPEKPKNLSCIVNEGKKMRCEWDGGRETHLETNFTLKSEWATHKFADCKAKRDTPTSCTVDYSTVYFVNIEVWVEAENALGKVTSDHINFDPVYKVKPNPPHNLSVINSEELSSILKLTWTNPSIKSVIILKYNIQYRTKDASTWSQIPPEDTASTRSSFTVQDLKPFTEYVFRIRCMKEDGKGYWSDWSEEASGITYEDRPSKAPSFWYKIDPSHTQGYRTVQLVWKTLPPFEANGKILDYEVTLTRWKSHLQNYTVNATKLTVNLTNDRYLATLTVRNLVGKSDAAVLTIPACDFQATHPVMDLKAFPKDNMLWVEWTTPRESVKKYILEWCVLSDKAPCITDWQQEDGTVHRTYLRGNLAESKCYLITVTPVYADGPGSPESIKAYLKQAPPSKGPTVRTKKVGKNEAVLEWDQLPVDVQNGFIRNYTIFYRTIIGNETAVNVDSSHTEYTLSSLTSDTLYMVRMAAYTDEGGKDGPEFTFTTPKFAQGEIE

T2: recombinant human LIFR (human, UniProt P42702 45-833, limits assumed)
T2 construct: also called hLIFR; LIF receptor
T2 sequence (looked up): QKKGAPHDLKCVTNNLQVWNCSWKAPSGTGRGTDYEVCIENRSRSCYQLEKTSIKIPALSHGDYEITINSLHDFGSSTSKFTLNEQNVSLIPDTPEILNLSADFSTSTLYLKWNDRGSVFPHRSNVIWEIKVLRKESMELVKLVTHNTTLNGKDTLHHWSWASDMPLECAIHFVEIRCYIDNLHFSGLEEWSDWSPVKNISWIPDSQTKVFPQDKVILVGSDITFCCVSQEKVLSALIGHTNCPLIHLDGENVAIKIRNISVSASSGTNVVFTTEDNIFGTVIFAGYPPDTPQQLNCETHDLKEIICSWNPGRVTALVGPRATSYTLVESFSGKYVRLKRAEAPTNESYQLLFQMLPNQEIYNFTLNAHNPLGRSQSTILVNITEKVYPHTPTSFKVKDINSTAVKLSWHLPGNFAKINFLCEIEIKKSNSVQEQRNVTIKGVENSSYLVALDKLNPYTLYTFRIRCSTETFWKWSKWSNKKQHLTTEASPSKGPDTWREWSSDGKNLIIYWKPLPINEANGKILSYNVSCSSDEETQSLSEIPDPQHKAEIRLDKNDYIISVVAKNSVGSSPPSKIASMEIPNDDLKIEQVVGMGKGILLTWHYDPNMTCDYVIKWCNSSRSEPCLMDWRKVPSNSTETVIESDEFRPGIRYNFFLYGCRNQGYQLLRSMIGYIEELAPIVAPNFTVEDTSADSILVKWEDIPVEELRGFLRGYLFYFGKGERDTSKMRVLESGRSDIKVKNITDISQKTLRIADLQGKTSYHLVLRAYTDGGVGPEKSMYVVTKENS


Assays:
recombinant human gp130 = biological target: T1, recombinant human gp130; assay: ELISA of mAb/LIF complexes on immobilized gp130, read through the antibody part (B09, anti-rat IgG-peroxidase)
[1] = biological target: LIF acting on U251 / U-251 glioma cells (endogenous LIF) (human, UniProt P15018 23-202); assay: cell-based or functional assay
huIL-6 (E. coli) = biological target: T3, huIL-6 (E. coli) (human, UniProt P05231 30-212, limits assumed); assay: BLI (Octet), h5D8 amine-coupled to AR2G sensor, cytokine as analyte
T3 construct: also called human IL-6
Protocol: Kinetics experiments were then performed with the following Dip and Read steps at 30° C., 1000 rpm: vi) 60 seconds Baseline in 1× kinetics buffer; vii) 180 seconds Association of appropriate serial dilutions of a cytokine in 1× kinetics buffer; viii) 300 seconds Dissociation in 1× kinetics buffer; ix) Three Regeneration/Neutralization cycles alternating between 10 mM glycine pH 2.0 and 1× kinetics buffer respectively (5 seconds in each for 3 cycles). Following regeneration, the biosensors were reused for subsequent binding analyses.

recombinant human LIFR = biological target: T2, recombinant human LIFR; assay: BLI (Octet RED96), control experiment, h5D8 on anti-human Fc sensor

Sequence of LIF acting on U251 / U-251 glioma cells (endogenous LIF) (P15018 23-202 limits assumed): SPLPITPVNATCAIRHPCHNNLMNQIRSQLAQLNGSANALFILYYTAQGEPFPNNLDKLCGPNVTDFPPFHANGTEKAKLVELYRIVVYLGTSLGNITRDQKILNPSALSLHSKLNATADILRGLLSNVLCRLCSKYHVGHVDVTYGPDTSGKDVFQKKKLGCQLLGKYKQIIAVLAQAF
T3 sequence (P05231 30-212 limits assumed): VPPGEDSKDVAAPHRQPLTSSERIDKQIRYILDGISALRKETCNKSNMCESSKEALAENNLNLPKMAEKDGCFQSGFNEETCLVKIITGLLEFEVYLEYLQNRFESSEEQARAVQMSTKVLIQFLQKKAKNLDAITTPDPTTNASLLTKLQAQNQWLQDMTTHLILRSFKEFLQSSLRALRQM

Row | binding result (recombinant human gp130) | IC50 for biological inhibition (pSTAT3), serum starved U-251 cells [1] | binding result (huIL-6 (E. coli)) | binding result (recombinant human LIFR) | Binder
1 | binds |  |  |  | human LIF (source not stated) (ligand, also called hLIF; recombinant human LIF protein) not shown
2 |  | 490 picomolar | no binding | no binding | h5D8 (humanized 5D8 comprising H2 and L2) (antibody, human IgG1, kappa, V domains shown, also called H2L2; G (H2L2)) VH: QVQLQESGGGLVKPGGSLRLSCAASGFTFSHAWMHWVRQAPGKGLEWVGQIKAKSDDYATYYAESVKGRFTISRDDSKNTLYLQMNSLKTEDTAVYYCTCWEWDLDFWGQGTMVTVSS VL: DIVMTQTPLSSPVTLGQPASISCRSSQSLLDSDGHTYLNWLQQRPGQPPRLLIYSVSNLESGVPDRFSGSGAGTDFTLKISRVEAEDVGVYYCMQATHAPPYTFGQGTKLEIKR
